Drawing on patent US20160298117, “PEANUT-BINDING NUCLEIC ACID MOLECULE AND USE THEREOF” (NEC Solution Innovators, Ltd., published 2016), this text covers binding result and Kd for 13 molecules.

As a reminder, the Kd is the free concentration of one partner at which half of the binding sites on the other are occupied at equilibrium, for simple one-to-one binding.

T1: conarachin (undenatured) (Arachis hypogaea) (UniProt P43238)
T1 sequence: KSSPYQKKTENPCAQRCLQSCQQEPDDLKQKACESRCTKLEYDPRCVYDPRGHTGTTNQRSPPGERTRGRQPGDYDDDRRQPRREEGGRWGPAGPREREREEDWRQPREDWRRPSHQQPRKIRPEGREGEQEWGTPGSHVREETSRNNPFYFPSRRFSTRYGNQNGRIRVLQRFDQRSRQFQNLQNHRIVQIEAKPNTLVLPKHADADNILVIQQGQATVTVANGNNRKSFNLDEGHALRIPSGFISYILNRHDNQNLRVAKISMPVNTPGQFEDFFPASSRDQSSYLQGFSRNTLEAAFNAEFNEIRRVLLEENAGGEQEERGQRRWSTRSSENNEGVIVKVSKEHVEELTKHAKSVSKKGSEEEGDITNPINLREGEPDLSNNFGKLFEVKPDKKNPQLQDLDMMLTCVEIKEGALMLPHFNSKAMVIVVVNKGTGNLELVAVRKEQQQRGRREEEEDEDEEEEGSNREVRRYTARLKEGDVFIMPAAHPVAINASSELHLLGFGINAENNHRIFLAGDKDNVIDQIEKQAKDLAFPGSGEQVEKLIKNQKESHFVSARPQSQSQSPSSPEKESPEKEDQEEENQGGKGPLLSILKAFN

T2: conarachin (undenatured) (Arachis hypogaea, UniProt P43238 P43238:26-626)
T2 sequence: T1 sequence

T3: Ara h1 (heat-denatured, purified from parboiled peanut) (Arachis hypogaea, UniProt P43238 P43238:26-626)
T3 sequence: T1 sequence

B1: P_NES03 (CONA161R2R8m1s32) (ssDNA)
DNA: GTTCGTGGTGTGTTGTGTGTGATTCCAGGGACAAAAAAAAAAAAAAAAAAAAAAAA

Sequence of beta-conglycinin (heat-denatured, boiled 10 min) (P0DO16 63-605, chain 1 of 3): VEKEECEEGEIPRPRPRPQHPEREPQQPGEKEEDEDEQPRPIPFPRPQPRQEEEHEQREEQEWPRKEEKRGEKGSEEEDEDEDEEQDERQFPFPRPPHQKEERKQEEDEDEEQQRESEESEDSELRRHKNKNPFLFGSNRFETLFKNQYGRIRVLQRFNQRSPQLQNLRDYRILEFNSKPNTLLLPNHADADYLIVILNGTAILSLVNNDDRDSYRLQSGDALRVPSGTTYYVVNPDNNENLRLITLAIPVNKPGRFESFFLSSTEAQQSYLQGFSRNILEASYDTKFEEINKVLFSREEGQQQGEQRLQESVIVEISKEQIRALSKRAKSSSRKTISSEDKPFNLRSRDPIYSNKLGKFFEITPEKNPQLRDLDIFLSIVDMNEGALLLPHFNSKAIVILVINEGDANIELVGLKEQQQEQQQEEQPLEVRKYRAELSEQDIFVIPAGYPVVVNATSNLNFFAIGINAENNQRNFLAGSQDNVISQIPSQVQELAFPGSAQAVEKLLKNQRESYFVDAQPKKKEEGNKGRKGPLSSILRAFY
Sequence of beta-conglycinin (heat-denatured, boiled 10 min) (P11827 63-621, chain 2 of 3): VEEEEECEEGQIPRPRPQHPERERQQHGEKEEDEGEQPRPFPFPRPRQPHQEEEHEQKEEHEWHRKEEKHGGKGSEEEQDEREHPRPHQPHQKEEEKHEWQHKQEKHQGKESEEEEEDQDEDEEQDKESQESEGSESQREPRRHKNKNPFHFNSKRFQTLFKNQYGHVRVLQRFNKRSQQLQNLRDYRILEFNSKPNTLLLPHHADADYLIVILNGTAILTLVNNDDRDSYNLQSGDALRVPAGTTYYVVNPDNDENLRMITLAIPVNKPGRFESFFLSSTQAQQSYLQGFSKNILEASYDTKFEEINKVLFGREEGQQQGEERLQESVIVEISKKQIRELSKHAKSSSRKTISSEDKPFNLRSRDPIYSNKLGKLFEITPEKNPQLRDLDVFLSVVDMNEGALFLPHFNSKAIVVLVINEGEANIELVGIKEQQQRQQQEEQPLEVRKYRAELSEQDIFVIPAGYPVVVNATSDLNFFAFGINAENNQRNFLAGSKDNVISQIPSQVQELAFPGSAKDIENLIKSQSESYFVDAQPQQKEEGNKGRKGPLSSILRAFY
Sequence of beta-conglycinin (heat-denatured, boiled 10 min) (P25974 24-439, chain 3 of 3): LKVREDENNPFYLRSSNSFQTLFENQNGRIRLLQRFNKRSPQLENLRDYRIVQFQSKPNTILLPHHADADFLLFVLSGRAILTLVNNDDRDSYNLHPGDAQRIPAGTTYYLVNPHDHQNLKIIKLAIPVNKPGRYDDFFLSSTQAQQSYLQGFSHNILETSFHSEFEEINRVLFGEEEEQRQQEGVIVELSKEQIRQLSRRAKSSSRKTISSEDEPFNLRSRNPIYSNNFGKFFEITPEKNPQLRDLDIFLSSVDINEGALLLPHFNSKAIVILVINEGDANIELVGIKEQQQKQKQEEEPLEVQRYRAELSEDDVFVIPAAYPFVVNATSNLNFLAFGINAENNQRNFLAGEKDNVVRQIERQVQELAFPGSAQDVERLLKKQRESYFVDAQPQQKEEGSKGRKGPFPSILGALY

The first data set addresses beta-conglycinin (heat-denatured, boiled 10 min) (Glycine max, UniProt P0DO16;P11827;P25974 P0DO16:63-605,P11827:63-621,P25974:24-439). Briefly: SPR; little binding, 18.75-300 nM. Particulars: tags: Sigma C5868-5GM. Here is the method:
(§1) Biotinylated poly(dT) at 5 μmol/L was injected to a flow cell of the sensor chip using ultrapure water (DDW), and the binding was allowed to proceed until the signal intensity (RU: Resonance Unit) reached about 900 RU. The biotinylated poly(dT) was prepared by biotinylating the 5′ end of 24-mer deoxythymidine. Then, the poly(dA)-added aptamer at 1 μmol/L was injected to the flow cell of the chip using an SPR buffer at a flow rate of 25 μL/min for 80 seconds, and the binding was allowed to proceed until the signal intensity reached about 800 RU. […] Subsequently, the sample was injected using the SPR buffer at a flow rate of 50 μL/min for 120 seconds, followed by washing performed by flowing the SPR buffer under the same conditions. Signal intensity measurement was performed concurrently with the injection of the sample and the washing with the SPR buffer.
As soybean allergen samples, undenatured β-conglycinin, heat-denatured β-conglycinin, undenatured soybean proteins, and heat-denatured soybean proteins were provided. A commercially available product (Sigma, trade name β-conglycinin from Glycine max (soybean), C5868-5GM) was used as the undenatured β-conglycinin. The heat-denatured β-conglycinin was prepared by boiling the undenatured β-conglycinin for 10 minutes and then collecting a supernatant fraction. As the undenatured soybean proteins and the heat-denatured soybean proteins, the undenatured soybean sample and the heat-denatured soybean sample in Example 1 were used.
(§2) The concentrations of the β-conglycinin were set to 18.75, 37.5, 75, 150, and 300 nmol/L, and the protein concentrations in the soybean samples were set to 1, 3, 10, 30, and 100 ppm. The SPR analysis was performed in the same manner as in Example 1, except that these samples were used. Then, from the results of the above-described SPR analysis, the relative binding value was determined regarding the proteins in each peanut sample bound to the aptamer immobilized on the chip.
(In general: SPR reads the build-up and loss of mass on a sensor chip optically.)
B1: the binding result is given as “no binding”.

As for GTTTTCTAGGCCAATCTGATCAACAAAAAAAAAAAAAAAAAAAAAAAA (ssDNA) [P_NES04 (CONA171NNHR2R8m2s24)], the binding result is given as “no binding”.

As for CTCTCTCTCTCTCCCTCTCTCTCTCAAAAAAAAAAAAAAAAAAAAAAAA (ssDNA) [CT25_C3 (Pyrimidine rich)], the binding result is “no binding”.

On to TTTTTTTTTTTTTTTTTTTTAAAAAAAAAAAAAAAAAAAAAAAA (ssDNA) [PolydT20], for which the binding result was “no binding”.

Regarding CCCGCCTGTATTCCTGTCCAAAAAAAAAAAAAAAAAAAAAAAA (ssDNA) [P_NES01 (NAH1128R7Am2s19G)], the binding result is reported as “no binding”.

The next data set concerns the target T1, conarachin (undenatured) (Arachis hypogaea). The data set can be described thus: SPR. Particulars: all T replaced by 5-tryptaminocarbonyl-dU (TrpdU); printed as P_M_NES01 in table; same SPR buffer.
For “GGATTCCGTGCCGTGCTAAAGGCCTCCCCGTTTATAGGCAGGTATCCGGCAGACTACTGGGCTTGCGACAAATGAAAAAAAAAAAAAAAAAAAAAAAA [P_NES_M01 (CONA170TEDAR2R8m1)]”, the dissociation constant Kd was determined as 0.0388 nM. In other words, the picomolar range.

In a further data set the target is T2, conarachin (undenatured). Briefly: SPR; same SPR buffer. Particulars: tags: COSMO BIO CSB-CSB-NP003601PL. Here is the method: (§3) First, as a sensor chip designed specifically for the ProteON, a streptavidin-immobilized chip (trade name: ProteOn NLC Sensor Chip, BioRad) was set in the ProteON XPR36. Biotinylated poly(dT) at 5 μmol/L was injected to a flow cell of the sensor chip using ultrapure water (DDW), and the binding was allowed to proceed until the signal intensity (RU: Resonance Unit) reached about 900 RU. The biotinylated poly(dT) was prepared by biotinylating the 5′ end of 24-mer deoxythymidine. Then, the poly(dA)-added aptamer at 1 μmol/L was injected to the flow cell of the chip using an SPR buffer at a flow rate of 25 μL/min for 80 seconds, and the binding was allowed to proceed until the signal intensity reached about 800 RU. […]
(§4) Samples were prepared by adjusting commercially available peanut allergen conarachin (COSMO BIO, CSB-CSB-NP003601PL, Arachis hypogaea seed, Native) to 50 nmol/L, 25 nmol/L, 12.5 nmol/L, 6.25 nmol/L, and 3.125 nmol/L. The conarachin is a undenatured protein, and the conarachin generally accounts for about 17% of the total amount of peanut proteins in a peanut. The SPR analysis was carried out in the same manner as in Example 1, and the kinetic parameter was calculated from the results of the analysis.
CTCTCTCTCTCTCCCTCTCTCTCTCAAAAAAAAAAAAAAAAAAAAAAAA (ssDNA) [CT25_C3 (Pyrimidine rich)] had a Kd of 0.28 nM. In other words, the sub-nanomolar range.

As for TTTTTTTTTTTTTTTTTTTTAAAAAAAAAAAAAAAAAAAAAAAA (ssDNA) [PolydT20], binding was characterised by a dissociation constant (Kd) of 0.263 nM.

For another data set, the target named is T4, beta-conglycinin (undenatured) (Glycine max, UniProt P0DO16;P11827;P25974 P0DO16:63-605,P11827:63-621,P25974:24-439). The data set can be described thus: SPR; little binding. Particulars: tags: Sigma C5868-5GM. The procedure: as §1, with “First, as a sensor chip designed specifically for the ProteON, a streptavidin-immobilized chip (trade name: ProteOn NLC Sensor Chip, BioRad) was set in the ProteON XPR36. Biotinylated” for “Biotinylated”
T4 sequence (P0DO16 63-605, chain 1 of 3): as the sequence (P0DO16 63-605, chain 1 of 3) above
T4 sequence (P11827 63-621, chain 2 of 3): as the sequence (P11827 63-621, chain 2 of 3) above
T4 sequence (P25974 24-439, chain 3 of 3): as the sequence (P25974 24-439, chain 3 of 3) above
(§5) Except that the following eight types of aptamers were used as pyrimidine-rich aptamers, the binding forces to Ara h1, heat-denatured peanut proteins, undenatured β-conglycinin, and heat-denatured soybean proteins were examined by SPR in the same manner as in the above-described examples.
Turning to CTCTCTCTCCCCCCCCCCCTCTCTCAAAAAAAAAAAAAAAAAAAAAAAA (ssDNA) [CT25_C11], the binding result is “no binding”.

Take CTCTCTCTCTCCCCCCCTCTCTCTCAAAAAAAAAAAAAAAAAAAAAAAA (ssDNA) [CT25_C7]: the binding result is listed as “no binding”.

On to CTCTCTCTCTCTCTCTCTCTCTCTCAAAAAAAAAAAAAAAAAAAAAAAA (ssDNA) [CT25_C0], for which the binding result is on record as “no binding”.

Turning to CACACACACCCCCCCCCCCACACACAAAAAAAAAAAAAAAAAAAAAAAAA (ssDNA) [CA25_C11], the binding result is recorded as “no binding”.

For CACACACACACACCCACACACACACAAAAAAAAAAAAAAAAAAAAAAAAA (ssDNA) [CA25_C3], the binding result is recorded as “no binding”.

On to CACACACACACACACACACACACACAAAAAAAAAAAAAAAAAAAAAAAAA (ssDNA) [CA25_C0], for which the binding result is reported as “no binding”.

For the molecule CACACACACACCCCCCCACACACACAAAAAAAAAAAAAAAAAAAAAAAAA (ssDNA) [CA25_C7], the binding result is “no binding”.

The next data set deals with T3, Ara h1 (heat-denatured, purified from …). The data set can be described thus: SPR; very high binding. Particulars: tags: INDOOR biotechnologies NA-AH1-1. The procedure: as §1, with “First, as a sensor chip designed specifically for the ProteON, a streptavidin-immobilized chip (trade name: ProteOn NLC Sensor Chip, BioRad) was set in the ProteON XPR36. Biotinylated” for “Biotinylated”
as §5
CTCTCTCTCCCCCCCCCCCTCTCTCAAAAAAAAAAAAAAAAAAAAAAAA (ssDNA) [CT25_C11]: the binding result is on record as “binds”.

On to CTCTCTCTCTCCCCCCCTCTCTCTCAAAAAAAAAAAAAAAAAAAAAAAA (ssDNA) [CT25_C7], for which the binding result is listed as “binds”.

Consider CTCTCTCTCTCTCTCTCTCTCTCTCAAAAAAAAAAAAAAAAAAAAAAAA (ssDNA) [CT25_C0], for which the binding result is “binds”.

Take CACACACACCCCCCCCCCCACACACAAAAAAAAAAAAAAAAAAAAAAAAA (ssDNA) [CA25_C11]: the binding result is reported as “binds”.

For the molecule CACACACACACACCCACACACACACAAAAAAAAAAAAAAAAAAAAAAAAA (ssDNA) [CA25_C3], the binding result was “binds”.

Take CACACACACACACACACACACACACAAAAAAAAAAAAAAAAAAAAAAAAA (ssDNA) [CA25_C0]: the binding result is given as “binds”.

In the case of CACACACACACCCCCCCACACACACAAAAAAAAAAAAAAAAAAAAAAAAA (ssDNA) [CA25_C7], the binding result was “binds”.

The target is the same in a further data set. Briefly: SPR; 40 mM HEPES pH 7.5, 125 mM NaCl, 5 mM KCl, 1 mM MgCl2, 0.05% Tween 20. Particulars: tags: INDOOR biotechnologies NA-AH1-1. The procedure:
as §1, with “First, as a sensor chip designed specifically for the ProteON, a streptavidin-immobilized chip (trade name: ProteOn NLC Sensor Chip, BioRad) was set in the ProteON XPR36. Biotinylated” for “Biotinylated”
Samples were prepared by adjusting commercially available peanut allergen Ara h1 (INDOOR biotechnologies, #NA-AH1-1, Blanched peanut, crushed [Runner cultivar]) to 50 nmol/L, 25 nmol/L, 12.5 nmol/L, and 6.25 nmol/L. The Ara h1, which is purified from parboiled peanuts, is a heat-denatured protein. The SPR analysis was carried out in the same manner as in Example 1, and the kinetic parameter was calculated from the results of the analysis.
Consider B1, for which the affinity, expressed as Kd, was 0.173 nM.

In the case of GTTTTCTAGGCCAATCTGATCAACAAAAAAAAAAAAAAAAAAAAAAAA (ssDNA) [P_NES04 (CONA171NNHR2R8m2s24)], the Kd is 0.141 nM.

For the molecule TTTTTTTTTTTTTTTTTTTTAAAAAAAAAAAAAAAAAAAAAAAA (ssDNA) [PolydT20], the Kd was 0.19 nM.

Another data set deals with T2, conarachin (undenatured). Described as above. Particulars: tags: COSMO BIO CSB-CSB-NP003601PL. The procedure:
as §3, §4
Turning to CCCGCCTGTATTCCTGTCCAAAAAAAAAAAAAAAAAAAAAAAA (ssDNA) [P_NES01 (NAH1128R7Am2s19G)], the Kd turned out to be 0.259 nM.

The next data set deals with T4, beta-conglycinin (undenatured). The data set can be described thus: SPR; little binding, 18.75-300 nM. Particulars: tags: Sigma C5868-5GM. Here is the method:
as §1, with “First, as a sensor chip designed specifically for the ProteON, a streptavidin-immobilized chip (trade name: ProteOn NLC Sensor Chip, BioRad) was set in the ProteON XPR36. Biotinylated” for “Biotinylated”
as §2, with “chip. The relative binding value was calculated as the ratio of the protein binding measured value to the aptamer immobilization measured value (the protein binding measured value/the aptamer immobilization measured value).” for “chip.”
Consider B1, for which the binding result is listed as “no binding”.

As for GTTTTCTAGGCCAATCTGATCAACAAAAAAAAAAAAAAAAAAAAAAAA (ssDNA) [P_NES04 (CONA171NNHR2R8m2s24)], the binding result is reported as “no binding”.

With CTCTCTCTCTCTCCCTCTCTCTCTCAAAAAAAAAAAAAAAAAAAAAAAA (ssDNA) [CT25_C3 (Pyrimidine rich)], the binding result was “no binding”.

For TTTTTTTTTTTTTTTTTTTTAAAAAAAAAAAAAAAAAAAAAAAA (ssDNA) [PolydT20], the binding result was “no binding”.

CCCGCCTGTATTCCTGTCCAAAAAAAAAAAAAAAAAAAAAAAA (ssDNA) [P_NES01 (NAH1128R7Am2s19G)]: the binding result is “no binding”.
